Results published in the Human Domainome abundance scans (Beltran et al. 2025).
± gives the uncertainty stated by the source.

Experiment: abundance fitness (aPCA) (normalised: wild type 0, dead -1); higher = more abundant; growth selection in yeast, the domain comes from the species named
Conditions: Homo sapiens
Work on “Scaffold attachment factor B1 V36H, Q15424” yielded an abundance fitness of -0.409 ± 0.098.
“Scaffold attachment factor B1 V36K, Q15424” showed an abundance fitness of -0.19 ± 0.078.
In the case of “Scaffold attachment factor B1 V36L, Q15424”, the abundance fitness is reported as -0.063 ± 0.053.
“Scaffold attachment factor B1 V36M, Q15424” showed an abundance fitness of -0.031 ± 0.065.
Work on “Scaffold attachment factor B1 V36N, Q15424” yielded an abundance fitness of -0.275 ± 0.064.
“Scaffold attachment factor B1 V36P, Q15424” showed an abundance fitness of -0.281 ± 0.087.
For “Scaffold attachment factor B1 V36Q, Q15424”, the abundance fitness was -0.417 ± 0.085.
With “Scaffold attachment factor B1 V36R, Q15424” the abundance fitness was -0.258 ± 0.052.
“Scaffold attachment factor B1 V36T, Q15424” showed an abundance fitness of -0.134 ± 0.082.
“Scaffold attachment factor B1 V36W, Q15424” gave an abundance fitness of -0.37 ± 0.07.
With “Scaffold attachment factor B1 V36Y, Q15424” the abundance fitness was -0.366 ± 0.072.
“Scaffold attachment factor B1 V48C, Q15424” showed an abundance fitness of -0.133 ± 0.07.
Substance “Scaffold attachment factor B1 V48D, Q15424” has an abundance fitness of -0.768 ± 0.11.
Substance “Scaffold attachment factor B1 V48E, Q15424” has an abundance fitness of -0.231 ± 0.075.
In the case of “Scaffold attachment factor B1 V48F, Q15424”, the abundance fitness is reported as -0.157 ± 0.085.
For “Scaffold attachment factor B1 V48G, Q15424”, the abundance fitness was -0.195 ± 0.057.
In the case of “Scaffold attachment factor B1 V48H, Q15424”, the abundance fitness is reported as -0.125 ± 0.08.
In the case of “Scaffold attachment factor B1 V48K, Q15424”, the abundance fitness is reported as -0.118 ± 0.095.
For “Scaffold attachment factor B1 V48L, Q15424”, the abundance fitness was -0.056 ± 0.065.
In the case of “Scaffold attachment factor B1 V48M, Q15424”, the abundance fitness is reported as -0.083 ± 0.082.
Work on “Scaffold attachment factor B1 V48N, Q15424” yielded an abundance fitness of -0.362 ± 0.11.
“Scaffold attachment factor B1 V48P, Q15424” gave an abundance fitness of -0.691 ± 0.091.
Substance “Scaffold attachment factor B1 V48Q, Q15424” has an abundance fitness of -0.388 ± 0.096.
With “Scaffold attachment factor B1 V48R, Q15424” the abundance fitness was -0.078 ± 0.057.
For “Scaffold attachment factor B1 V48S, Q15424”, the abundance fitness was -0.255 ± 0.059.
In the case of “Scaffold attachment factor B1 V48T, Q15424”, the abundance fitness is reported as -0.254 ± 0.083.
In the case of “Scaffold attachment factor B1 V48W, Q15424”, the abundance fitness is reported as -0.281 ± 0.062.
In the case of “Scaffold attachment factor B1 V56A, Q15424”, the abundance fitness is reported as -0.101 ± 0.059.
For “Scaffold attachment factor B1 V56C, Q15424”, the abundance fitness was -0.177 ± 0.095.
For “Scaffold attachment factor B1 V56E, Q15424”, the abundance fitness was -0.15 ± 0.078.
“Scaffold attachment factor B1 V56F, Q15424” showed an abundance fitness of -0.414 ± 0.072.
For “Scaffold attachment factor B1 V56G, Q15424”, the abundance fitness was -0.305 ± 0.063.
Work on “Scaffold attachment factor B1 V56H, Q15424” yielded an abundance fitness of -0.226 ± 0.076.
Substance “Scaffold attachment factor B1 V56I, Q15424” has an abundance fitness of -0.126 ± 0.067.
With “Scaffold attachment factor B1 V56K, Q15424” the abundance fitness was -0.197 ± 0.064.
“Scaffold attachment factor B1 V56M, Q15424” gave an abundance fitness of -0.16 ± 0.07.
In the case of “Scaffold attachment factor B1 V56N, Q15424”, the abundance fitness is reported as -0.169 ± 0.064.
Substance “Scaffold attachment factor B1 V56Q, Q15424” has an abundance fitness of -0.249 ± 0.083.
Work on “Scaffold attachment factor B1 V56R, Q15424” yielded an abundance fitness of -0.121 ± 0.054.
With “Scaffold attachment factor B1 V56S, Q15424” the abundance fitness was -0.129 ± 0.049.
In the case of “Scaffold attachment factor B1 V56T, Q15424”, the abundance fitness is reported as -0.202 ± 0.069.
Substance “Scaffold attachment factor B1 V56W, Q15424” has an abundance fitness of -0.476 ± 0.052.
Work on “Scaffold attachment factor B1 V56Y, Q15424” yielded an abundance fitness of -0.345 ± 0.07.
